No end group written: not given here.
Biological target: T1, human common gamma chain (γc, CD132) (human, UniProt P31785 23-369)
T1 sequence (looked up): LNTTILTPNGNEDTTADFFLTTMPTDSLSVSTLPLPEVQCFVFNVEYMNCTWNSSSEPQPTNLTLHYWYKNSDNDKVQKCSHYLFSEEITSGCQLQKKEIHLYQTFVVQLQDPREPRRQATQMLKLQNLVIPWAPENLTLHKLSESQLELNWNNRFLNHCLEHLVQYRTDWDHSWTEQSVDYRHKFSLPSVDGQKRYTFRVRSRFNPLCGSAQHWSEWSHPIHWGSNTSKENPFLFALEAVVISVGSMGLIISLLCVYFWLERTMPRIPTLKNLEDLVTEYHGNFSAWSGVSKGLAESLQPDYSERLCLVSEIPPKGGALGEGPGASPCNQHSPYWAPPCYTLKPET
Assay: cell-based or functional assay

Binder: IKEFLQSFIHIVQSIINT (not fully specified) [BNZ132-1 peptide]
- IC50 of inhibition of IL-2/IL-15-induced proliferation of ex vivo human T-lymphocytes (IL-2 + IL-15, 0.1 nM each): 0.15 µM

Reference: patent publication US9959384 (BIONIZ, dated 2018)
